Results as given in patent US20220289820.

Tested on: D11-CD8stk-IL2Rg_A5-Hinge-IL2Rb
Sequence (chain, as listed by the source, chain 1 of 2): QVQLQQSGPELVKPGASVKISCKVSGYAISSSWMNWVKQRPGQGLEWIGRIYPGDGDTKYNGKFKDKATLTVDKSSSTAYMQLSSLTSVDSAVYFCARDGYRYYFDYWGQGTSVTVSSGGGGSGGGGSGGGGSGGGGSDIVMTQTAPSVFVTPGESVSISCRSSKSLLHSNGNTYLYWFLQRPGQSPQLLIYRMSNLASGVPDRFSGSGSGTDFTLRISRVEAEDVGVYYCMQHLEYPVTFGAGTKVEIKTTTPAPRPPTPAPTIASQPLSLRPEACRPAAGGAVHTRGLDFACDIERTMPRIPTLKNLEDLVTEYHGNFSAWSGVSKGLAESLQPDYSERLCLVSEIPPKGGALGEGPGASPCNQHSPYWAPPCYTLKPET
Sequence (chain, as listed by the source, chain 2 of 2): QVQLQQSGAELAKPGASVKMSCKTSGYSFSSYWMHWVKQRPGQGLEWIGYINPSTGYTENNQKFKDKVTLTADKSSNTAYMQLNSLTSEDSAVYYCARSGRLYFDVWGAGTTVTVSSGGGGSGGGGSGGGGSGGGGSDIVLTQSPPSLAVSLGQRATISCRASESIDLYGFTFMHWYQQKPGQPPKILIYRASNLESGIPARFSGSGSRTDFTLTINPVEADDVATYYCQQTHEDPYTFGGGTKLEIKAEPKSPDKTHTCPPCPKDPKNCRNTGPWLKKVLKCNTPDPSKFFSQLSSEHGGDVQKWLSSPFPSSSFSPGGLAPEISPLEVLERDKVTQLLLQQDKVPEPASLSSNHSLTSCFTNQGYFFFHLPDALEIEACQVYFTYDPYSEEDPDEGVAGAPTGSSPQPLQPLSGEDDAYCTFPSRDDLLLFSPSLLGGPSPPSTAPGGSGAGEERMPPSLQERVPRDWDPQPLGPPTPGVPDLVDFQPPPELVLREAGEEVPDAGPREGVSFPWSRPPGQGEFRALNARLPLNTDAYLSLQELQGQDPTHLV

prostate-specific antigen (PSA)
phosphorylation of Y694 of STAT5 (phosphoflow): In the cells expressing the PSA CCR, the presence of PSA lead to increasing STAT5 phosphorylation with time
